First the molecules themselves.
B1: 3G1: Mouse anti-GCC hybridoma mAb, IgG1,k; VH SEQ ID NO:2, VL SEQ ID NO:4 (antibody, V domains shown)
VH: QVQLKESGPGLVAPSQSLSITCTVSGFSLSRNAISWVRQPPGKGLEWLGVIWTGGGTNYNSALKSRLSIRKENSKSQVFLKMNSLQTEDTARYFCARSGYDGFDYWGQGTLVTVSA
VL: QIVLTQSPAIMSASPGEKVTMTCSASSSVNYMHWYQQKSGTSPKRWIYDTSKLASGVPARFSGSGSGTSYSLTITSMEAEDAATYYCQQWSGNPYTFGGGTKLEIK
B2: 8F1: Mouse anti-GCC hybridoma mAb, IgG1,k; VH SEQ ID NO:10, VL SEQ ID NO:12 (antibody, V domains shown)
VH: QVQLQQPGAELVKPGASVQMSCKASGYIFTGYWMYWVKQRPGQGLEWIGRIHPSDSNTNYNQKFKGKATLTVDKSSSTAYMQLSSLTSEDSAVYYCTHALAYWGQGTLVTVS
VL: DVVLTQTPLTLSITIGQPASISCKSSQSLLYSNGKTYLSWLLQRPGQSPKRLIYLVSQLDSGVPDRFTGSGSGTDFTLKISRVEAEDLGVYYCVQGTHLFTFGSGTKLEIK
B3: Abx-198: Human anti-GCC SLAM mAb, IgG1,k; VH SEQ ID NO:42, VL SEQ ID NO:44 (antibody, V domains shown)
VH: EVQLLESGGGLVQPGGSLRLSCAASGFTFSSYAMSWVRQAPGKGLDWVSDISGSGGSTYYADSVKGRFTISRDNSKNTLYLQMHSLSAEDTAIYYCAKRRWQGYFDLWGRGTLVTVSS
VL: EIVLTQSPGTLSLSPGERATLSCRARQRVDSRYLAWYQQKPGQAPRLLIYGASSRATGIPDRFSGSGSGTDFTLTISRLEPEDFAVYYCQQYGSSPLTFGGGTKVEIK

The test system of the test is GCC 20-mer peptides (aa 1-440). The test can be described thus: Epitope mapping by peptide array. Particulars: 20-mer peptides with 15 aa overlap, GCC aa 1-440. The class given is binding, human. An excerpt: Multiple strategies were initiated to identify epitopes. Peptide array. 20-mer peptides, with 15 aa overlap were generated, covering the extracellular domain (ECD) into the transmembrane domain of GCC (aa 1-440). Peptides were synthesized and provided as arrays, immobilized on glass slides. Arrays were hybridized with each of the anti-GCC antibodies to determine if linear peptides were sufficient for binding. […] The sequence, […] (SEQ ID NO:225) is spanned by these peptides. A region of overlap among the peptides is […] (SEQ ID NO:314). […] The sequence, […] (SEQ ID NO:226), and the sequence […] (SEQ ID NO:315) overlaps the two peptides.
Take B1: the “Peptides bound in peptide array” value is “peptides 55, 56 and 57”. As for B2, the “Peptides bound in peptide array” value was “peptides 55, 56 and 57”. B3: the “Peptides bound in peptide array” value was “peptides 55 and 56”.

Values taken from patent US8785600B2, “Anti-GCC antibody molecules and related compositions and methods” (Millennium Pharmaceuticals, Inc., priority 2009, dated 2014).
